The results in this text go back to patent US20210113678A1 (ENTEROME S A, published 2021).

Test [1] has as its target T1, HLA-A*0201 molecule on human T2 cells (human).
T1 construct: read out with anti-HLA-A2 antibody BB7.2-PE; also called HLA-A2
In words: T2 cells expressing HLA-A*0201, anti-HLA-A2-PE, FACS (Example 7).

For test [2], the target named is T1, HLA-A*0201 molecule on human T2 cells. In words: T2 cells expressing HLA-A*0201, anti-HLA-A2-PE, FACS (Example 9).
The target is the same in test [3]. The test is described as above. This is another data set of the same source.
For test [4] the target is unchanged. In words: T2 cells expressing HLA-A*0201, anti-HLA-A2-PE, FACS.
Test [5] shares this target. The description is as above. This is another data set of the same source.
In test [6] the target is T2, HLA-A*0201 molecule expressed by the human tumoral cell T2 (human).
T2 construct: MHC class I on T2 cells; The tested peptide is added from outside; Surface HLA-A2 is read with anti-HLA-A2 antibody BB7.2-PE; also called HLA-A2
In words: T2 cell HLA-A2 stabilisation assay, flow cytometry with anti-HLA-A2 BB7.2-PE.

Test [7] deals with T1, HLA-A*0201 molecule on human T2 cells. In words: T2 cells expressing HLA-A*0201, anti-HLA-A2-PE, FACS (Example 8).

B1: peptide 1I9A (peptide)
peptide: ILPFGFILA
With B1, in test [1], the “In vitro binding affinity (relative to reference peptide HIV pol 589-597)” value was found to be 2.22.

B2: peptide 2M (peptide)
peptide: LMLGEFLKL
As for B2, in test [2], the “Concentration of peptide that induces 20% of HLA-A2 expression” value is 2.87 µM and the “In vitro binding affinity (relative to reference peptide HIV pol 589-597)” value came to 3.38. For the same molecule, in test [3], the “mean relative fluorescence intensity at 0.1 µM peptide” value was 0.76 % of HIV peptide, the “mean relative fluorescence intensity at 1 µM peptide” value was 8.37 % of HIV peptide, the “mean relative fluorescence intensity at 10 µM peptide” value was 48.5 % of HIV peptide and the “mean relative fluorescence intensity at 100 µM peptide” value is 75.2 % of HIV peptide.

B3: BIRC5-B1 (peptide)
peptide: FMLGEFLKL
For B3, in test [4], the “Concentration of peptide that induces 20% of HLA-A2 expression” value was 2.7 µM and the “In vitro binding affinity (relative to reference peptide HIV pol 589-597)” value turned out to be 0.8. Besides, in test [2], the “Concentration of peptide that induces 20% of HLA-A2 expression” value turned out to be 1.24 µM and the “In vitro binding affinity (relative to reference peptide HIV pol 589-597)” value turned out to be 1.46. Further, in test [3], the “mean relative fluorescence intensity at 0.1 µM peptide” value is 1.07 % of HIV peptide, the “mean relative fluorescence intensity at 1 µM peptide” value was 17.4 % of HIV peptide, the “mean relative fluorescence intensity at 10 µM peptide” value is 65.1 % of HIV peptide and the “mean relative fluorescence intensity at 100 µM peptide” value is 102 % of HIV peptide. In test [5], the “mean relative fluorescence intensity at 1.5625 µM peptide” value is 1.9 % of HIV peptide, the “mean relative fluorescence intensity at 3.125 µM peptide” value was 22.3 % of HIV peptide, the “mean relative fluorescence intensity at 6.25 µM peptide” value is 36.1 % of HIV peptide and the “mean relative fluorescence intensity at 25 µM peptide” value is 61.7 % of HIV peptide. Also, in test [5], the “mean relative fluorescence intensity at 50 µM peptide” value was 77.1 % of HIV peptide and the “mean relative fluorescence intensity at 100 µM peptide” value was 117 % of HIV peptide.

B4: BIRC5-H (peptide)
peptide: LTLGEFLKL
As to B4, in test [4], the “Concentration of peptide that induces 20% of HLA-A2 expression” value worked out at 53 µM and the “In vitro binding affinity (relative to reference peptide HIV pol 589-597)” value is 16.1. Further, in test [2], the “Concentration of peptide that induces 20% of HLA-A2 expression” value worked out at 95.9 µM and the “In vitro binding affinity (relative to reference peptide HIV pol 589-597)” value was determined as 113. In test [3], the “mean relative fluorescence intensity at 0.1 µM peptide” value is 0 % of HIV peptide, the “mean relative fluorescence intensity at 1 µM peptide” value is 0 % of HIV peptide, the “mean relative fluorescence intensity at 10 µM peptide” value is 3.52 % of HIV peptide and the “mean relative fluorescence intensity at 100 µM peptide” value was 20.5 % of HIV peptide. Moreover, in test [5], the “mean relative fluorescence intensity at 1.5625 µM peptide” value is 1.7 % of HIV peptide, the “mean relative fluorescence intensity at 3.125 µM peptide” value is 1.4 % of HIV peptide, the “mean relative fluorescence intensity at 6.25 µM peptide” value was 10.8 % of HIV peptide and the “mean relative fluorescence intensity at 25 µM peptide” value was 9.8 % of HIV peptide. Also, in test [5], the “mean relative fluorescence intensity at 50 µM peptide” value was 18.9 % of HIV peptide and the “mean relative fluorescence intensity at 100 µM peptide” value was 35.6 % of HIV peptide.

B5: EZH2-B (peptide)
peptide: FLVEDETVI
On to B5, for which, in test [4], the “Concentration of peptide that induces 20% of HLA-A2 expression” value is 8.8 µM and the “In vitro binding affinity (relative to reference peptide HIV pol 589-597)” value was 0.7. Also, in test [5], the “mean relative fluorescence intensity at 1.5625 µM peptide” value was 5.5 % of HIV peptide, the “mean relative fluorescence intensity at 3.125 µM peptide” value is 14.4 % of HIV peptide, the “mean relative fluorescence intensity at 6.25 µM peptide” value was 28.9 % of HIV peptide and the “mean relative fluorescence intensity at 25 µM peptide” value is 53.9 % of HIV peptide. In test [5], the “mean relative fluorescence intensity at 50 µM peptide” value is 82.6 % of HIV peptide and the “mean relative fluorescence intensity at 100 µM peptide” value is 94.9 % of HIV peptide.

B6: peptide 2M (peptide)
peptide: LMLGEFLKL
B6: the binding result in test [6] is listed as “binds”.

B7: BIRC5-H (peptide)
peptide: LTLGEFLKL
B7: in test [6], the binding result is “binds”.

B8: BIRC5-B1 (peptide)
peptide: FMLGEFLKL
Consider B8, for which the binding result in test [6] was “binds”.

B9: IL13RA2-L (peptide)
peptide: FLPFGFILPV
Consider B9, for which the “In vitro binding affinity (relative to reference peptide HIV pol 589-597)” value in test [7] and in test [4] was 0.3 in each case.

B10: IL13RA2-B (peptide)
peptide: FLPFGFILV
For the molecule B10, in test [7], the “Concentration of peptide that induces 20% of HLA-A2 expression” value stood at 2.9 µM and the “In vitro binding affinity (relative to reference peptide HIV pol 589-597)” value was determined as 0.3. Moreover, in test [4], the “Concentration of peptide that induces 20% of HLA-A2 expression” value was 2.9 µM and the “In vitro binding affinity (relative to reference peptide HIV pol 589-597)” value came to 0.3. For the same molecule, the “In vitro binding affinity (relative to reference peptide HIV pol 589-597)” value in test [1] stood at 0.49. In test [5], the “mean relative fluorescence intensity at 1.5625 µM peptide” value was 14.8 % of HIV peptide, the “mean relative fluorescence intensity at 3.125 µM peptide” value is 15.7 % of HIV peptide, the “mean relative fluorescence intensity at 6.25 µM peptide” value is 40.8 % of HIV peptide and the “mean relative fluorescence intensity at 25 µM peptide” value was 86.5 % of HIV peptide. For the same molecule, in test [5], the “mean relative fluorescence intensity at 50 µM peptide” value was 113 % of HIV peptide and the “mean relative fluorescence intensity at 100 µM peptide” value is 128 % of HIV peptide.

B11: comparative peptide 1A9V (peptide)
peptide: ALPFGFILV
For the molecule B11, in test [7], the “Concentration of peptide that induces 20% of HLA-A2 expression” value was determined as 36.5 µM and the “In vitro binding affinity (relative to reference peptide HIV pol 589-597)” value was 3.6. In test [1], the “In vitro binding affinity (relative to reference peptide HIV pol 589-597)” value was 3.06.

B12: peptide 1F9M (peptide)
peptide: FLPFGFILM
For the molecule B12, the “In vitro binding affinity (relative to reference peptide HIV pol 589-597)” value in test [1] was 2.62.

B13: peptide 1I9A (peptide)
peptide: ILPFGFILA
On to B13, for which the binding result in test [6] is “binds”.

B14: IL13RA2-B (peptide)
peptide: FLPFGFILV
As for B14, the binding result in test [6] is given as “binds”.

B15: peptide 1F9M (peptide)
peptide: FLPFGFILM
Take B15: the binding result in test [6] was “binds”.

B16: comparative peptide 1A9V (peptide)
peptide: ALPFGFILV
Turning to B16, the binding result in test [6] is reported as “binds”.
